Test results reported in US6790646B2, “Mutants of monoamine oxidase B” (Research Development Foundation, priority 1998, dated 2004).

How the values were obtained:
MAO B [1] = target: T1, MAO B (Homo sapiens, UniProt P27338, F423A); assay: Kinetic analysis of wild-type and mutant MAO B with [14C]PEA substrate (transfected COS-7 cell homogenates); type: biochemical; settings: substrate not stated in the sentence (Tables 1 and 2: PEA and benzylamine)
T1 construct: expressed in transfected cells; host or cells: COS-7
T1 sequence (P27338 2-520 F423A): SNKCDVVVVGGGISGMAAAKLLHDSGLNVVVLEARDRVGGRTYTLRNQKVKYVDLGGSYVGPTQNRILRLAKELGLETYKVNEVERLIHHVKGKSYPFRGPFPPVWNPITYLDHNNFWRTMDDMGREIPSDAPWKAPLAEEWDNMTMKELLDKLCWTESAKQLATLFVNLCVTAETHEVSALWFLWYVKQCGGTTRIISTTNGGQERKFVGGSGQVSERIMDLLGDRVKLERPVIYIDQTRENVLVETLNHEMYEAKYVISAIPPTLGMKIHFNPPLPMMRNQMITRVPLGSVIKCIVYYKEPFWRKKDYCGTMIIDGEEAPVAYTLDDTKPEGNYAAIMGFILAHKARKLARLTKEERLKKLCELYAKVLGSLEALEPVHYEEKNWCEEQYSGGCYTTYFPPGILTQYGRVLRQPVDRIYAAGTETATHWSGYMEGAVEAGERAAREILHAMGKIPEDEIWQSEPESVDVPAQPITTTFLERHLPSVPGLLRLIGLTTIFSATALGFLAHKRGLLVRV
Description: (§1) The wild-type and mutant MAO B enzymes were expressed in mammalian COS-7 cells, and the enzymatic properties of the native enzyme and its mutant enzymes were determined and compared. Wild-type and mutant MAO B cDNAs were transiently transfected into COS-7 cells by electroporation. Cells were harvested during late log phase growth and resuspended to a concentration of 3.125×10^6 cells/ml in DMEM supplemented with 10% fetal bovine serum (FBS). Fifteen μg of normal or mutant cDNA were added to 0.8 ml (2.5×10^6 cells) of cell suspension. Electroporation was carried out in a Bio-Rad Gene Pulser with a setting of 0.25 kV and 500 μF. Cells were resuspended in 15 ml of DMEM/FBS and incubated at 37° C. with 5% CO2 for 48 h.
(§2) Aliquots (20 μl) of transfected COS-7 cell homogenates were incubated for 10 min at 37° C. in the presence of various concentrations of [^14C]PEA (20 mCi/mmol) or [^14C]benzylamine (10 mCi/mmol) in 50 mM sodium phosphate buffer, pH 7.5 (200 μl total volume). Substrate concentrations ranged from 0.25-2.5 times the Km value (determined in pilot experiments) to yield 10 equally-spaced reciprocal increments. Parallel assays were carried out with untransfected COS-7 cell lysates as a control. Reactions were stopped by addition of 25 μl of 6 N HCl and the deaminated products were extracted by vortexing for 30 seconds with 500 μl of toluene or toluene:ethyl acetate (1:1) for benzylamine or PEA, respectively. Samples were processed as described previously (28). Apparent Km and Vmax values were determined by linear regression analysis of Lineweaver-Burk plots. Kcat values were calculated from the Vmax values divided by the concentration of wild-type or mutant MAO B determined in each experiment. Expression levels of wild-type or mutant MAO B were determined in triplicate for six separate experiments as follows: wild-type=11.1+2.07; F423A=9.30+1.89; E427Q=10.3+1.29; T428A=10.2+2.07; T428S=10.2+1.53 pmol MAO B/mg protein. Data are given as means +S.E.M. pmol/mg of protein determined using a subunit molecular weight of 58,800.

MAO B [2] = assay: as above; type: biochemical, human; settings: PEA substrate; activity too low to determine kinetic parameters
Description: as §1, §2

MAO B [3] = assay: Kinetic analysis of wild-type and mutant MAO B with [14C]benzylamine substrate (transfected COS-7 cell homogenates); type: biochemical, human; settings: activity too low to determine kinetic parameters
Description: as §1, §2

COS-7 cells = assay: Expression levels of wild-type or mutant MAO B in transfected COS-7 cells; settings: transiently transfected COS-7 cells, triplicate, six experiments, mean + S.E.M., subunit molecular weight 58,800
Description: as §1, §2

MAO B [4] = assay: pH profiles of wild-type and mutant MAO B enzymatic activity with [14C]benzylamine; type: biochemical, human; settings: pH 6.0 to 9.0, 500 μM benzylamine
Description: Aliquots (20 μl) of transfected COS-7 cell homogenates were incubated for 10 min at 37° C. in the presence of 500 μM (^14C)benzylamine (2.5 mCi/mmol) in 50 mM sodium phosphate buffer, pH 6.0, 6.5, 7.0, 7.5, 8.0, 8.5 or 9.0 (200 μl total volume). Reactions were stopped by addition of 25 μl of 6 N HCl. Parallel assays were carried out with untransfected COS-7 homogenates as a control. Samples were processed as previously described (28) and the derived specific activity values (nmol/min·mg protein) were divided by wild-type or mutant MAO B concentration, determined for each experiment, to obtain enzymatic activity values (nmol/min·m g MAO B). Enzymatic activities were determined in duplicate for three separate experiments.
To examine the possibility that the mutation effects a proton-dependent step in the reaction, the enzymatic activity of the mutant and wild-type MAO B enzymes was determined at different pH values from 6.0 to 9.0 (FIG. 4).

B1: F423 A: human MAO B mutant, Phe residue at position 423 changed to Ala (protein, UniProt P27338 2-520, looked up, variant F423A)
Amine oxidase …: T1 sequence (P27338 2-520 F423A)
- decrease in activity compared to the wild-type enzyme (MAO B [1]): > 95 % reduction
- activity relative to wild-type (MAO B [2]): (<5% wt)
- activity relative to wild-type (MAO B [3]): (<5% wt)
- Expression level (COS-7 cells): 9.30+1.89 pmol MAO B/mg protein
- pH profile of enzymatic activity (MAO B [4]): fairly similar to wild-type MAO B
